Two substances from patent US9453226B2, “Protection of cells from Alu-RNA-induced degeneration and inhibitors for protecting cells” (UNIVERSITY OF KENTUCKY RESEARCH FOUNDATION, priority 2011, dated 2016) can be followed below.

The subject of experiment [1] is RPE. Description: AAV1-BEST1-Cre-induced RPE degeneration in Dicer1 f/f mice. The class given is in vivo. Particulars: peptide intravitreous. How it is done:
Subretinal injections (1 μL) in mice were performed using a Pico-Injector (PLI-100, Harvard Apparatus). In vivo transfection of plasmids coding for two different Alu sequences (pAlu) or empty control vector (pNull) (Bennett et al., 2008; Kaneko et al., 2011; Shaikh et al., 1997) was achieved using 10% Neuroporter (Genlantis). AAV1-BEST1-Cre (Alexander and Hauswirth, 2008) or AAV1-BEST1-GFP were injected at 1.0×10^11 pfu/mL and in vitro transcribed Alu RNA was injected at 0.3 mg/mL. […]

The target of experiment [2] is T1, Caspase-1 (Homo sapiens, UniProt P29466).
T1 construct: Primary human RPE cells were isolated as previously described; endogenous in cells; host or cells: primary human RPE cells
T1 sequence (P29466 120-297 limits assumed): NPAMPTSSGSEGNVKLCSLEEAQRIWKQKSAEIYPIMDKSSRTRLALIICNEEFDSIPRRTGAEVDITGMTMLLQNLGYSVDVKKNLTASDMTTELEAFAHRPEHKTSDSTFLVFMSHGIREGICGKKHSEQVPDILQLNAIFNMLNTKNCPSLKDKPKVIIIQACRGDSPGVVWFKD
T1 sequence (P29466 317-404 limits assumed): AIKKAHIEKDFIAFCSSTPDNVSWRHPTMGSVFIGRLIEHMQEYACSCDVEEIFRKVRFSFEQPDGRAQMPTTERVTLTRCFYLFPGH
Briefly: Caspase-1 activation in human RPE cells (Western blot p20, Caspalux substrate cleavage). The class given is cell-based. Particulars: for Alu RNA-induced Caspase-1 substrate cleavage: Caspalux fluorescent substrate. How it is done: Protein abundance was assessed by Western blot analysis using antibodies against Caspase-1 (1:500; Invitrogen), pIRAK1 (1:500; Thermo Scientific), pIRAK4 (1:500, Abbomax), PYCARD (1:200, Santa Cruz Biotechnology), NLRP3 (1:500, Enzo Life Sciences) and Vinculin (1:1,000; Sigma-Aldrich). Caspase-1 activity was visualized using Caspalux1 E1D2 (Oncolmmunin) according to manufacturer's instructions.
Tissues or cells were homogenized in lysis buffer (10 mM Tris base, pH 7.4, 150 mM NaCl, 1 mM EDTA, 1 mM EGTA, 1% Triton X-100, 0.5% NP-40, protease and phosphatase inhibitor cocktail (Roche)). Protein concentrations were determined using a Bradford assay kit (Bio-Rad) with bovine serum albumin as a standard. Proteins (40-100 μg) were run on NuPAGE Bis-Tris gels (Invitrogen) and transferred to Immun-Blot PVDF membranes (Bio-Rad). Cells were scraped in hot Laemmli buffer (62.5 mM Tris base, pH 6.8, 2% SDS, 5% 2-Mercaptoethanol, 10% Glycerol, 0.01% Bromophenol Blue). Samples were boiled and run on 4-20% NuPAGE Tris-Glycine gels (Invitrogen). The transferred membranes were blocked for 1 h at RT and incubated with antibodies against human Caspase-1 (1:500; Invitrogen), mouse Caspase 1 (1:500; MBL), NLRP3 (1:1000; Enzo Life Sciences), PYCARD (1:1000, RayBiotech), phospho-IRAK1 (S376) (1:500, Thermo Scientific), phospho-IRAK4 (T345) (1:500, AbboMax), DICER1 (1:2,000; Bethyl), MyD88 (1:1,000; Cell Signaling), and mouse IL-18 (1:200; MBL) at 4° C. overnight. Protein loading was assessed by immunoblotting using an anti-Vinculin antibody (1:1,000; Sigma-Aldrich). The secondary antibodies were used (1:5,000) for 1 h at RT. The signal was visualized by enhanced chemiluminescence (ECL plus) and captured by VisionWorksLS Image Acquisition and Analysis software (Version 6.7.2, UVP, LLC).
Caspase-1 activity. Caspase-1 activity was visualized by incubating cells with Caspalux1E1D2 reagent (Oncolmmunin) according to the manufacturer's instructions. Caspalux1E1D2 signal was quantified reading the fluorescence (excitation 552 nm, emission 580 nm) using a Synergy 4 reader (Biotek). Quantification of fluorescence from images was performed by converting images into grayscale in Adobe Photoshop CSS, and measuring the integrated density of black and white images using ImageJ software (NIH) (Bogdanovich et al., 2008).
Background: Immunoblotting shows a protein as a band on a membrane.

Take “DRQIKIWFQNRRMKWKKRDVLPGT [MyD88 inhibitory peptide]”: the “AAV1-BEST1-Cre-induced RPE degeneration” value in experiment [1] is “blocked”. Further, in experiment [2], the “Alu RNA-induced Caspase-1 substrate cleavage” value is “does not reduce”. Moreover, in experiment [2] (Western blot), the “Alu RNA-induced Caspase-1 activation (p20 subunit)” value was “unaffected”.

Take Z-WEHD-FMK: in experiment [1], the “AAV1-BEST1-Cre-induced RPE degeneration” value is “blocked”. Besides, the results for the “Alu RNA-induced Caspase-1 substrate cleavage” value in experiment [2] (listed as Caspase-1-inhibitory peptide) and in experiment [2] (listed as Caspase-1 inhibitor peptide) were “blocked Alu RNA-induced substrate cleavage” and “blocks”, respectively.
